Reference: US20110300138A1 (published 2011)
Where two headings read alike, the source gives them in different places.

Legend:
[1] = target: TSHR with Asp160 mutated to Lys, expressed in CHO cells (human) (UniProt P16473); test: cell-based or functional assay
[2] = target: TSH receptor (TSHR), full length human, coated on tubes (human) (UniProt P16473); test: inhibition of 125I-TSH binding to TSHR coated tubes; 100 µg/mL, diluted in HBD serum pool
[3] = target: TSH receptor (TSHR) coated on tubes (human) (UniProt P16473); test: inhibition of 125I-K1-70 IgG binding to TSHR coated tubes; negative control 0.01 µg/mL in assay buffer
[4] = target: TSH receptor (TSHR) coated on tubes (human) (UniProt P16473); test: inhibition of 125I-K1-70 IgG binding to TSHR coated tubes; negative control 10 µg/mL in HBD serum pool
[5] = target: TSH receptor (TSHR) coated on tubes (human) (UniProt P16473); test: inhibition of 125I-K1-70 IgG binding to TSHR coated tubes; negative control 0.01 µg/mL in HBD serum pool
[6] = target: human thyroid stimulating hormone receptor (TSHR), full length (human) (UniProt P16473); test: 125I-K1-70 Fab (competitor) binding to TSHR coated tubes; negative control MAb 0.01 µg/mL in assay buffer
[7] = target: TSH receptor (full length human TSHR) (human) (UniProt P16473); test: competition ELISA: inhibition of M22 Fab-peroxidase (competitor) binding to TSHR coated wells; negative control at 100 µg/mL diluted in HBD serum pool
[8] = target: TSH receptor (full length human TSHR) (human) (UniProt P16473); test: competition ELISA: inhibition of M22 Fab-peroxidase (competitor) binding to TSHR coated wells; negative control at 0.01 µg/mL diluted in HBD serum pool
[9] = target: TSHR with Asp232 mutated to Ala expressed in CHO cells (human) (UniProt P16473); test: cell-based or functional assay
[10] = target: TSHR with Glu107 mutated to Ala expressed in CHO cells (human) (UniProt P16473); test: cell-based or functional assay
[11] = target: TSHR with Glu157 mutated to Ala, expressed in CHO cells (human) (UniProt P16473); test: cell-based or functional assay
[12] = target: TSHR with Lys209 mutated to Ala (expressed in CHO cells) (human) (UniProt P16473); test: cell-based or functional assay
[13] = target: TSHR with Lys250 mutated to Ala (expressed in CHO cells) (human) (UniProt P16473); test: cell-based or functional assay
[14] = target: TSHR with Phe130 mutated to Ala, expressed in CHO cells (human) (UniProt P16473); test: cell-based or functional assay
[15] = target: TSHR with Tyr82 mutated to Ala expressed in CHO cells (human) (UniProt P16473); test: cell-based or functional assay
[16] = target: TSH receptor (TSHR) coated on tubes (human) (UniProt P16473); test: inhibition of 125I-K1-70 IgG binding to TSHR coated tubes; sample 100 µg/mL in HBD serum pool

5B3 IgG (antibody)
% inhibition of TSH stimulation (stimulator given as M22), mutated TSHR; 5B3 10 µg/mL [1]: 0% | % inhibition of TSH stimulation (stimulator given as M22), mutated TSHR; 5B3 100 µg/mL [1]: 11% | Mutated/wild type (%) of cyclic AMP produced; test sample: 5B3 10 µg/mL + M22 [1]: 69% | Mutated/wild type (%) of cyclic AMP produced; test sample: 5B3 100 µg/mL + M22 [1]: 60% | Inhibition of binding (%) [2]: -3.9% | Inhibition of binding (%) [3]: 3.2% | Inhibition of binding (%) [4]: -0.7% | Inhibition of binding (%) [5]: 3.2% | Inhibition of binding (%) [6]: -1.7% | Inhibition of binding (%) [7]: 3.8% | Inhibition of binding (%) [8]: 4.3%

TSH (ligand)
Cyclic AMP produced, mutated TSHR, TSH 0.01 ng/mL (Experiment 1) [9]: 1.4 pmol/mL | Cyclic AMP produced, mutated TSHR, TSH 0.01 ng/mL (Experiment 2) [9]: 2.58 pmol/mL | Cyclic AMP produced, mutated TSHR, TSH 0.03 ng/mL (Experiment 1) [9]: 2.16 pmol/mL | Cyclic AMP produced, mutated TSHR, TSH 0.03 ng/mL (Experiment 2) [9]: 4.1 pmol/mL | Cyclic AMP produced, mutated TSHR, TSH 0.1 ng/mL (Experiment 1) [9]: 5.39 pmol/mL | Cyclic AMP produced, mutated TSHR, TSH 0.1 ng/mL (Experiment 2) [9]: 9.44 pmol/mL | Cyclic AMP produced, mutated TSHR, TSH 0.3 ng/mL (Experiment 1) [9]: 15.1 pmol/mL | Cyclic AMP produced, mutated TSHR, TSH 0.3 ng/mL (Experiment 2) [9]: 23.5 pmol/mL | Cyclic AMP produced, mutated TSHR, TSH 1 ng/mL (Experiment 1) [9]: 31.9 pmol/mL | Cyclic AMP produced, mutated TSHR, TSH 1 ng/mL (Experiment 2) [9]: 44.4 pmol/mL | Cyclic AMP produced, mutated TSHR, TSH 3 ng/mL (Experiment 1) [9]: 41 pmol/mL | Cyclic AMP produced, mutated TSHR, TSH 3 ng/mL (Experiment 2) [9]: 62 pmol/mL | Mutated/Wild type (%) of cyclic AMP produced, TSH 0.01 ng/mL, Experiment 1 [9]: 83% | Mutated/Wild type (%) of cyclic AMP produced, TSH 0.01 ng/mL, Experiment 2 [9]: 62% | Mutated/Wild type (%) of cyclic AMP produced, TSH 0.03 ng/mL, Experiment 1 [9]: 88% | Mutated/Wild type (%) of cyclic AMP produced, TSH 0.03 ng/mL, Experiment 2 [9]: 83% | Mutated/Wild type (%) of cyclic AMP produced, TSH 0.1 ng/mL, Experiment 1 [9]: 87% | Mutated/Wild type (%) of cyclic AMP produced, TSH 0.1 ng/mL, Experiment 2 [9]: 84% | Mutated/Wild type (%) of cyclic AMP produced, TSH 0.3 ng/mL, Experiment 1 [9]: 80% | Mutated/Wild type (%) of cyclic AMP produced, TSH 0.3 ng/mL, Experiment 2 [9]: 75% | Mutated/Wild type (%) of cyclic AMP produced, TSH 1 ng/mL, Experiment 1 [9]: 70% | Mutated/Wild type (%) of cyclic AMP produced, TSH 1 ng/mL, Experiment 2 [9]: 60% | Mutated/wild type (%) of cyclic AMP produced; TSH 3 ng/mL; Experiment 1 [9]: 66% | Mutated/wild type (%) of cyclic AMP produced; TSH 3 ng/mL; Experiment 2 [9]: 64% | % inhibition of TSH stimulation; TSH (2) [10]: 12% | Cyclic AMP produced, mutated TSHR, TSH 0.01 ng/mL [10]: 8.2 pmol/mL | Cyclic AMP produced, mutated TSHR, TSH 0.03 ng/mL [10]: 8.92 pmol/mL | Cyclic AMP produced, mutated TSHR, TSH 0.1 ng/mL [10]: 8.24 pmol/mL | Cyclic AMP produced, mutated TSHR, TSH 0.3 ng/mL [10]: 15.7 pmol/mL | Cyclic AMP produced, mutated TSHR, TSH 1 ng/mL [10]: 30.2 pmol/mL | Cyclic AMP produced, mutated TSHR, TSH 3 ng/mL [10]: 43.9 pmol/mL | Cyclic AMP produced; TSH 3 ng/mL [10]: 83.7 pmol/mL | Cyclic AMP produced; TSH (2) [10]: 73.2 pmol/mL | Mutated/Wild type (%) of cyclic AMP produced, TSH 0.01 ng/mL [10]: 582% | Mutated/Wild type (%) of cyclic AMP produced, TSH 0.03 ng/mL [10]: 448% | Mutated/Wild type (%) of cyclic AMP produced, TSH 0.1 ng/mL [10]: 149% | Mutated/Wild type (%) of cyclic AMP produced, TSH 0.3 ng/mL [10]: 97% | Mutated/Wild type (%) of cyclic AMP produced, TSH 1 ng/mL [10]: 68% | Mutated/wild type (%) of cyclic AMP produced; TSH 3 ng/mL [10]: 82% | Mutated/wild type (%) of cyclic AMP produced; TSH (2) [10]: 78% | Mutated/wild type (%) of cyclic AMP produced; TSH 3 ng/mL ([10]; record 2): 110% | Mutated/Wild type (%) of cyclic AMP produced, TSH 0.01 ng/mL [11]: 450% | Mutated/Wild type (%) of cyclic AMP produced, TSH 0.03 ng/mL [11]: 328% | Mutated/Wild type (%) of cyclic AMP produced, TSH 0.1 ng/mL [11]: 164% | Mutated/Wild type (%) of cyclic AMP produced, TSH 0.3 ng/mL [11]: 118% | Mutated/Wild type (%) of cyclic AMP produced, TSH 1 ng/mL [11]: 86% | Mutated/wild type (%) of cyclic AMP produced; TSH 3 ng/mL [11]: 115% | Mutated/Wild type (%) of cyclic AMP produced, TSH 0.01 ng/mL [12]: 171% | Mutated/Wild type (%) of cyclic AMP produced, TSH 0.03 ng/mL [12]: 128% | Mutated/Wild type (%) of cyclic AMP produced, TSH 0.1 ng/mL [12]: 65% | Mutated/Wild type (%) of cyclic AMP produced, TSH 0.3 ng/mL [12]: 64% | Mutated/Wild type (%) of cyclic AMP produced, TSH 1 ng/mL [12]: 45% | Cyclic AMP produced, TSH 0.01 ng/mL [13]: 8.29 pmol/mL | Cyclic AMP produced, TSH 0.03 ng/mL [13]: 12.6 pmol/mL | Cyclic AMP produced, TSH 0.1 ng/mL [13]: 28.8 pmol/mL | Cyclic AMP produced, TSH 0.3 ng/mL [13]: 66.2 pmol/mL | Cyclic AMP produced, TSH 1 ng/mL [13]: 87.9 pmol/mL | Cyclic AMP produced; TSH 3 ng/mL [13]: 110 pmol/mL | Mutated/Wild type (%) of cyclic AMP produced, TSH 0.01 ng/mL [13]: 207% | Mutated/Wild type (%) of cyclic AMP produced, TSH 0.03 ng/mL [13]: 189% | Mutated/Wild type (%) of cyclic AMP produced, TSH 0.1 ng/mL [13]: 147% | Mutated/Wild type (%) of cyclic AMP produced, TSH 0.3 ng/mL [13]: 147% | Mutated/Wild type (%) of cyclic AMP produced, TSH 1 ng/mL [13]: 116% | Mutated/wild type (%) of cyclic AMP produced; TSH 3 ng/mL [13]: 126% | Cyclic AMP produced, TSH 0.01 ng/mL, mutated TSHR [14]: 3.05 pmol/mL | Cyclic AMP produced, TSH 0.03 ng/mL, mutated TSHR [14]: 4.12 pmol/mL | Cyclic AMP produced, TSH 0.1 ng/mL, mutated TSHR [14]: 9.61 pmol/mL | Cyclic AMP produced, TSH 0.3 ng/mL, mutated TSHR [14]: 35.6 pmol/mL | Cyclic AMP produced, TSH 1 ng/mL, mutated TSHR [14]: 66.2 pmol/mL | Cyclic AMP produced, TSH 3 ng/mL, mutated TSHR [14]: 80.4 pmol/mL | Mutated/Wild type (%), TSH 0.01 ng/mL [14]: 134% | Mutated/Wild type (%), TSH 0.03 ng/mL [14]: 109% | Mutated/Wild type (%), TSH 0.1 ng/mL [14]: 101% | Mutated/Wild type (%), TSH 0.3 ng/mL [14]: 124% | Mutated/Wild type (%), TSH 1 ng/mL [14]: 86% | Mutated/Wild type (%), TSH 3 ng/mL [14]: 86% | % inhibition of TSH stimulation; TSH (2); Experiment 1 [15]: 44% | % inhibition of TSH stimulation; TSH (2); Experiment 2 [15]: 22% | Cyclic AMP produced; TSH 3 ng/mL; Experiment 1 [15]: 166 pmol/mL | Cyclic AMP produced; TSH 3 ng/mL; Experiment 2 [15]: 74.6 pmol/mL | Cyclic AMP produced; TSH (2); Experiment 1 [15]: 92.3 pmol/mL | Cyclic AMP produced; TSH (2); Experiment 2 [15]: 57.9 pmol/mL | Mutated/wild type (%) of cyclic AMP produced; TSH 3 ng/mL; Experiment 1 [15]: 108% | Mutated/wild type (%) of cyclic AMP produced; TSH 3 ng/mL; Experiment 2 [15]: 125% | Mutated/wild type (%) of cyclic AMP produced; TSH (2); Experiment 1 [15]: 58% | Mutated/wild type (%) of cyclic AMP produced; TSH (2); Experiment 2 [15]: 94%

B1: 5C9 IgG (antibody, from another filing, V domains shown)
VH: EVQLVESGGGLIQPGGSLRLSCAASGFTVSSNYMSWVRQAPGKGLEWVSVTYSGGSTSYADSVKGRFTISRDNSKNTLYLQMNSLRAEDTAVYYCARGGRYCSSISCYARSGCDYWGQGTLVTVSS
VL: AIQMTQSPSSLSASVGDRVTITCRASQSISNYLNWYQQKPGKAPKLLIYAASSLQSGVPSRFSGSGSGTDFTLTISSLQPEDFATYYCQQSYSSPSTTFGQGTKLEIK
Inhibition of binding (%) [16]: 68.5%
